Test results published in the supplement of paper PMC11246515.
± gives the standard deviation of the averaged measurements.

Test: total protein half-life in vivo (active degradation + dilution); higher = more stable protein
[1] = E. coli NCM3722 delta-clpP delta-lon delta-hslV, growth: N-lim chemostat, doubling time 6 h
[2] = E. coli NCM3722 delta-clpP, growth: N-lim chemostat, doubling time 6 h
[3] = E. coli NCM3722 delta-hslV, growth: N-lim chemostat, doubling time 6 h
[4] = E. coli NCM3722 delta-lon, growth: N-lim chemostat, doubling time 6 h
[5] = E. coli NCM3722 delta-smpB, growth: N-lim chemostat, doubling time 6 h
[6] = wild type E. coli NCM3722, growth: C-lim chemostat, doubling time 12 h
[7] = wild type E. coli NCM3722, growth: N-lim chemostat, doubling time 6 h
[8] = wild type E. coli NCM3722, growth: N-lim chemostat, doubling time 12 h
[9] = wild type E. coli NCM3722, growth: P-lim chemostat, doubling time 6 h
[10] = wild type E. coli NCM3722, growth: P-lim chemostat, doubling time 12 h
[11] = wild type E. coli NCM3722, growth: C-lim chemostat, doubling time 3 h
[12] = wild type E. coli NCM3722, growth: C-lim chemostat, doubling time 6 h

Sequence	total protein half-life in vivo [1] [h]	total protein half-life in vivo [2] [h]	total protein half-life in vivo [3] [h]	total protein half-life in vivo [4] [h]	total protein half-life in vivo [5] [h]	total protein half-life in vivo [6] [h]	total protein half-life in vivo [7] [h]	total protein half-life in vivo [8] [h]	total protein half-life in vivo [9] [h]	total protein half-life in vivo [10] [h]	total protein half-life in vivo [11] [h]	total protein half-life in vivo [12] [h]
MLVWLAEHLVKYYSGFNVFSYLTFRAIVSLLTALFISLWMGPRMIAHLQKLSFGQVVRNDGPESHFSKRGTPTMGGIMILTAIVISVLLWAYPSNPYVWCVLVVLVGYGVIGFVDDYRKVVRKDTKGLIARWKYFWMSVIALGVAFALYLAGKDTPATQLVVPFFKDVMPQLGLFYILLAYFVIVGTGNAVNLTDGLDGLAIMPTVFVAGGFALVAWATGNMNFASYLHIPYLRHAGELVIVCTAIVGAGLGFLWFNTYPAQVFMGDVGSLALGGALGIIAVLLRQEFLLVIMGGVFVVETLSVILQVGSFKLRGQRIFRMAPIHHHYELKGWPEPRVIVRFWIISLMLVLIGLATLKVR [P0A6W3]	6.14	5.83	5.23	5.13 ± 0.073	7.03	12.3 ± 0.13	6.35 ± 0.4	13.1	6.06	11.1 ± 0.92		
MKRTKSIRHASFRKNWSARHLTPVALAVATVFMLAGCEKSDETVSLYQNADDCSAANPGKSAECTTAYNNALKEAERTAPKYATREDCVAEFGEGQCQQAPAQAGMAPENQAQAQQSSGSFWMPLMAGYMMGRLMGGGAGFAQQPLFSSKNPASPAYGKYTDATGKNYGAAQPGRTMTVPKTAMAPKPATTTTVTRGGFGESVAKQSTMQRSATGTSSRSMGG [P0ADT2]	3.82 ± 0.98	4.17 ± 0.3	3.89 ± 0.12	3.69 ± 0.096	3.22 ± 0.56	5.86 ± 0.6	4.08 ± 0.88	7.11 ± 0.26	3.45 ± 0.38	7.48 ± 0.2	1.83 ± 0.4	3.71 ± 0.29
MYPVDLHMHTVASTHAYSTLSDYIAQAKQKGIKLFAITDHGPDMEDAPHHWHFINMRIWPRVVDGVGILRGIEANIKNVDGEIDCSGKMFDSLDLIIAGFHEPVFAPHDKATNTQAMIATIASGNVHIISHPGNPKYEIDVKAVAEAAAKHQVALEINNSSFLHSRKGSEDNCREVAAAVRDAGGWVALGSDSHTAFTMGEFEECLKILDAVDFPPERILNVSPRRLLNFLESRGMAPIAEFADL	4.97 ± 0.41	4.01 ± 0.17	3.945 ± 0.0077	4.67 ± 0.18	3.925 ± 0.00062	9.55 ± 1.1	4.04 ± 0.4	6.47 ± 0.46	5.73 ± 0.19	11.9 ± 0.49	3.11 ± 0.53	4.99 ± 0.23
MTNNPPSAQIKPGEYGFPLKLKARYDNFIGGEWVAPADGEYYQNLTPVTGQLLCEVASSGKRDIDLALDAAHKVKDKWAHTSVQDRAAILFKIADRMEQNLELLATAETWDNGKPIRETSAADVPLAIDHFRYFASCIRAQEGGISEVDSETVAYHFHEPLGVVGQIIPWNFPLLMASWKMAPALAAGNCVVLKPARLTPLSVLLLMEIVGDLLPPGVVNVVNGAGGVIGEYLATSKRIAKVAFTGSTEVGQQIMQYATQNIIPVTLELGGKSPNIFFADVMDEEDAFFDKALEGFALFAFNQGEVCTCPSRALVQESIYERFMERAIRRVESIRSGNPLDSVTQMGAQVSHGQLETILNYIDIGKKEGADVLTGGRRKLLEGELKDGYYLEPTILFGQNNMRVFQEEIFGPVLAVTTFKTMEEALELANDTQYGLGAGVWSRNGNLAYKMGRGIQAGRVWTNCYHAYPAHAAFGGYKQSGIGRETHKMMLEHYQQTKCLLVSYSDKPLGLF		4.04 ± 0.7	2.42 ± 0.5	2.83 ± 0.035	2.42 ± 0.14	7.87 ± 0.019	2.77 ± 0.77	4.07 ± 0.55	3.08 ± 1.1	6.36 ± 0.73	2.73 ± 0.41	5.1 ± 0.31
MHKAILNSDLIATKAGDVTVYNYDGETREYISTSNEYLAVGVGIPACSCLDAPGTHKAGYAICRSADFNSWEYVPDHRGETVYSTKTGESKEIKAPGDYPENTTTIAPLSPYDKWDGEKWVTDTEAQHSAAVDAAEAQRQSLIDAAMASISLIQLKLQAGRKLTQAETTRLNAVLDYIDAVTATDTSTAPDVIWPELPEA		2.37		1.83	2.04 ± 0.18	3.87	3.06	3.07 ± 0.66				
